Consider 1 molecule from paper PMC9459147, “Targeting the Cbl-b-Notch1 axis as a novel immunotherapeutic strategy to boost CD8+ T-cell responses” (Frontiers in Immunology, 2022).

In the assay the target is T1, UBE2D2(C85K)-Ub-FL-BODIPY (human | , UniProt P62837 1-147; P0CG48 1-76, C85K, ubiquitinated in vitro; BODIPY labelled in vitro (position not given)).
T1 construct: UBE2D2 ubiquitin-conjugating enzyme, human, with C85K; ubiquitin, conjugated in vitro to UBE2D2(C85K); also called UBE2D2(C85K), ubiquitinated and BODIPY labelled; source: E. coli, purified, ubiquitinated and BODIPY labelled in vitro
Briefly: AlphaScreen or HTRF; TR-FRET: biotinylated Cbl-b (36-427) with Src-Zap-70 fusion and ATP (enzyme reaction), UBE2D2(C85K)-Ub-FL-BODIPY and Streptavidin-Tb (binding reaction); signal at 520 nm, reference at 620 nm; used to titrate small-molecule Cbl-b inhibitors (NTX-512, NTX-447, NTX-307). The following applies: both partners purified. (Alpha assays give light when donor and acceptor beads are brought close together.)

B1: recombinant human Cbl-b (aa 36-427), biotinylated (domain or fragment, UniProt Q13191 36-427, looked up)
chain: PKQAAADRRTVEKTWKLMDKVVRLCQNPKLQLKNSPPYILDILPDTYQHLRLILSKYDDNQKLAQLSENEYFKIYIDSLMKKSKRAIRLFKEGKERMYEEQSQDRRNLTKLSLIFSHMLAEIKAIFPNGQFQGDNFRITKADAAEFWRKFFGDKTIVPWKVFRQCLHEVHQISSGLEAMALKSTIDLTCNDYISVFEFDIFTRLFQPWGSILRNWNFLAVTHPGYMAFLTYDEVKARLQKYSTKPGSYIFRLSCTRLGQWAIGYVTGDGNILQTIPHNKPLFQALIDGSREGFYLYPDGRSYNPDLTGLCEPTPHDHIKVTQEQYELYCEMGSTFQLCKICAENDKDVKIEPCGHLMCTSCLTAWQESDGQGCPFCRCEIKGTEPIIVDPFD
modifications: biotinylated in vitro (position not given)
notes: Cbl-b, human, residues 36-427; In the assay it was mixed with a recombinant human Src (aa 254-536)-Zap-70 (aa 281-297) fusion protein and ATP ('enzyme reaction'); Detected through Streptavidin-Tb; also called Cbl-b enzyme; source: E. coli, purified and biotinylated in vitro
With B1, the binding result is “binds”.
